Experimental data reported in patent US20180141988A1 (Pieris, published 2018).
Where a chain is given by its changes, count along the chain named.

B1: negative control lipocalin (SEQ ID NO: 2) (other)
chain: QDSTSDLIPAPPLSKVPLQQNFQDNQFHGKWYVVGLAGNAILREDKDPQKMYATIYELKEDKSYNVTSVLFRKKKCDYWIRTFVPGSQPGEFTLGNIKSYPGLTSYLVRVVSTNYNQHAMVFFKKVSQNREYFKITLYGRTKELTSELKENFIRFSKSLGLPENHIVFPVPIDQCIDG
B2: lipocalin mutein of SEQ ID NO: 8 (designed binder)
chain: QDSTSDLIPAPPLSKVPLQQNFQDNQFQGKWYVVGRAGNVGLREDKDPPKMWATIYELKEDKSYDVTNVRFARKKCLYSIGTFVPGSQPGEFTLGQIKSEPGNTANLVRVVSTNYNQHAMVFFKEVYQNREIFFIILYGRTKELTSELKENFIRFSKSLGLPENHIVFPVPIDQCIDGSAWSHPQFEK
notes: hNGAL (Lcn2) mutein; also called optimized GPC3 specific lipocalin mutein
B3: lipocalin mutein of SEQ ID NO: 13 (designed binder)
chain: B2 chain with V40L, L77M, N103S, I136T
notes: as for B2
B4: lipocalin mutein of SEQ ID NO: 15 (designed binder)
chain: B2 chain with W52R, N68G, A72G, R73E, C76I, L77K, E100Q, N103D, C175A
notes: as for B2
B5: lipocalin mutein of SEQ ID NO: 14 (designed binder)
chain: B2 chain with R73G, C76V, L77K, S79T, N106T, I136T, C175A
notes: as for B2
B6: lipocalin mutein of SEQ ID NO: 9 (designed binder)
chain: B2 chain with L77T, N103G
notes: as for B2
B7: lipocalin mutein of SEQ ID NO: 4 (designed binder)
chain: B2 chain with Q28H, G41A, W52R, D65N, R73M, L77M, A105S, I136T
notes: hNGAL (Lcn2) mutein; also called non-optimized GPC3-specific Lcn2 mutein; mother clone
B8: lipocalin mutein of SEQ ID NO: 16 (designed binder)
chain: B2 chain with W52R, N68G, A72D, R73S, C76V, L77T, C175A
notes: as for B2
B9: lipocalin mutein of SEQ ID NO: 12 (designed binder)
chain: B2 chain with G41A, W52R, R70V, R73G, L77K, Q96R, E100P
notes: as for B2
B10: lipocalin mutein of SEQ ID NO: 10 (designed binder)
chain: B2 chain with V40G, G41A, L77V, Q96P, N106S
notes: as for B2
B11: lipocalin mutein of SEQ ID NO: 11 (designed binder)
chain: B2 chain with G41A, W52R, N68A, Q96R, N103Y
notes: as for B2
B12: lipocalin mutein of SEQ ID NO: 5 (designed binder)
chain: QDSTSDLIPAPPLSKVPLQQNFQDNQFQGKWYVVGVAGNALLREDKDPLKMRATIYELKEDKSYDVTVVSFWRKKCHYKIGTFVPGSQPGEFTLGDIKSGPGQTSNLVRVVSTNYNQHAMVFFKEVRQNREWFAITLYGRTKELTSELKENFIRFSKSLGLPENHIVFPVPIDQCIDGSAWSHPQFEK
notes: as for B2
B13: lipocalin mutein of SEQ ID NO: 6 (designed binder)
chain: B12 chain with A40V, L41R, L49P, V68G, W72R, R73G, Q103E, A134F
notes: as for B2
B14: lipocalin mutein of SEQ ID NO: 3 (designed binder)
chain: B12 chain with Q28H, L41M, D65N, V68G
notes: as for B7
B15: lipocalin mutein of SEQ ID NO: 7 (designed binder)
chain: B12 chain with A40G, L41M, V68S, S70A, W72R, R73N, D96Q, Q103E, A134F
notes: as for B2

Tests used:
[1] = target: T1, human GPC3 on stably transfected SK-HEP-1 cells (human, UniProt P51654 25-554); experiment: MSD-based (ECL) cell binding assay on immobilized SK-HEP-1 cells transfected with human GPC3; detection with rabbit anti-scaffold antibody and Sulfotag-labelled anti-rabbit antibody
T1 construct: whole, on cells; also called SK-HEP-1::human GPC3
T1 sequence (P51654 25-554 limits assumed): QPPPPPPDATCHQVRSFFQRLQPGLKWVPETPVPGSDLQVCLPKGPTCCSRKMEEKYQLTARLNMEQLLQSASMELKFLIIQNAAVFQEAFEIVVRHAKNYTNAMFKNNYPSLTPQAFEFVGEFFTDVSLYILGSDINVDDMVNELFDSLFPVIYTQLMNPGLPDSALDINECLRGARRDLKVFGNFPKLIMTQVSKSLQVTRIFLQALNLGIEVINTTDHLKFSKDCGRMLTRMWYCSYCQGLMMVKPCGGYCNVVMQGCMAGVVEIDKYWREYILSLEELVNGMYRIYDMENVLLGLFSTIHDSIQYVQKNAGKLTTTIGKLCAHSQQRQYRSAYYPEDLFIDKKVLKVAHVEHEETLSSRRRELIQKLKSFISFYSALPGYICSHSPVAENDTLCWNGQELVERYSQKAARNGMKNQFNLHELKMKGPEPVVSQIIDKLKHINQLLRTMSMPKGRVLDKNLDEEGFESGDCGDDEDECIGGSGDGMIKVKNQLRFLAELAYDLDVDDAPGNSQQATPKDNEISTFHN
Protocol: (§1) Binding of optimized lipocalin muteins of SEQ ID NOs: 5-16 to human, cynomolgus and mouse GPC3 compared to SEQ ID NOs: 3 and 4 was tested on SK-HEP-1 cells using an ECL format (FIG. 1). In this experiment, dilution series of lipocalin muteins were incubated on MSD plates coated with human, cynomolgus or mouse GPC3 overexpressing SK-HEP-1 cells.
(§2) SEQ ID NOs: 3, 4, 5, 7, 8, 9, 10, 12, 13, 14, 15 and 16 (using 1000 nM as starting concentration) were serially diluted at a 1:3 ratio down to the picomolar range in PBS/Casein. 20 μl of the dilution series were transferred to the SK-HEP-1-coated plates for 1 hour at room temperature.
(§3) To allow for detection and quantification of bound GPC3 specific lipocalin muteins, the residual supernatants were discarded and 20 μl of a mixture of rabbit anti scaffold antibody (2 μg/ml) and Sulfotag labelled anti rabbit antibody (5 μg/ml) prepared in PBS/casein was added to the wells and incubated for 1 h at RT. After washing, 35 μl surfactant-free reading buffer was added to each well and the ECL intensity of every well was read using a MSD reader.

[2] = target: T1, human GPC3 on stably transfected …; experiment: MSD-based (ECL) cell binding assay on transfected SK-HEP-1 cells
Protocol: as §1, §2, §3

[3] = target: T2, cynomolgus GPC3 on stably transfected SK-HEP-1 cells (cynomolgus, UniProt A0A2K5VK50 24-553); experiment: as above
T2 construct: whole, on cells; also called SK-HEP-1::cyno GPC3; SK-HEP-1::cynomolugus GPC3
Protocol: as §1, §2, §3

[4] = target: T3, mouse GPC3 on stably transfected SK-HEP-1 cells (mouse, UniProt Q8CFZ4 25-553); experiment: as above
T3 construct: whole, on cells; also called SK-HEP-1::mouse GPC3; murine GPC3
T3 sequence (Q8CFZ4 25-553 limits assumed): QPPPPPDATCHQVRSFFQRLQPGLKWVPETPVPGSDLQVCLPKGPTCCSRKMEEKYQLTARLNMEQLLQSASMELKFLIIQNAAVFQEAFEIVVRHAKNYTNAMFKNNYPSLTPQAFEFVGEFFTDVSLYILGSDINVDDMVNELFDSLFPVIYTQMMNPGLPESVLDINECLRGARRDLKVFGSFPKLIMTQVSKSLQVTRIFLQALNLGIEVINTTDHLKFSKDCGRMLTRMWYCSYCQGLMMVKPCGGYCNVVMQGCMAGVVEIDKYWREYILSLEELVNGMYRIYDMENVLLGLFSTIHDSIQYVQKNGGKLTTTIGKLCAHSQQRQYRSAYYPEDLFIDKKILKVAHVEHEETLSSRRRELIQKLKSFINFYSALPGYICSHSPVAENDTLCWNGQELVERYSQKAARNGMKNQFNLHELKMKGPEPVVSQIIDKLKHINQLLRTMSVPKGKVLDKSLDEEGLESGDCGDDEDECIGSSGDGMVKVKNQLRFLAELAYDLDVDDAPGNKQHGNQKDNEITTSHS
Protocol: as §1, §2, §3

[5] = target: T4, murine GPC3 (6938-GP; R&D systems), biotinylated (murine, UniProt Q8CFZ4 25-558, limits assumed, biotinylated using standard NHS chemistry); experiment: SPR (Biacore T200), biotinylated GPC3 captured on chip, mutein in flow
T4 construct: Bought protein; also called mouse GPC3
T4 sequence (Q8CFZ4 25-558 limits assumed): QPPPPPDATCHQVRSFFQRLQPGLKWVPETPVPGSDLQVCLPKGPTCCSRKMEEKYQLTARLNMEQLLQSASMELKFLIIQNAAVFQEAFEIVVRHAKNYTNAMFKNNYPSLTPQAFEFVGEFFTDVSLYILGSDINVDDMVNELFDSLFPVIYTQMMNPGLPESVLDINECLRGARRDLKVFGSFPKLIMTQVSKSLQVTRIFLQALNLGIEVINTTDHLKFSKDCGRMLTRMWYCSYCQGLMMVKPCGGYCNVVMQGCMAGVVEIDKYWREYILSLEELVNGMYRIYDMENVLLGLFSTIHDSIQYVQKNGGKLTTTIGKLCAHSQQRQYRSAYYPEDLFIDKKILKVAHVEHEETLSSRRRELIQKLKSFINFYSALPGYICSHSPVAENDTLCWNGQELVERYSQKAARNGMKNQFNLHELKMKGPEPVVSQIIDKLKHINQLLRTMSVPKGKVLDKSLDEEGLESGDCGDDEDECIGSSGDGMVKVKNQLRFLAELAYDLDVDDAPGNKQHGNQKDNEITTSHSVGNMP
Protocol: (§4) SPR analysis of the binding of the optimized Lcn2 muteins to human and mouse GPC3 was performed at 25° C. on a Biacore T200 instrument (GE Healthcare) using HBS-EP+ (1x; BR-1006-69; GE Healthcare) as running buffer. The Biotin CAPture Kit (GE Healthcare) was used to immobilize biotinylated GPC3 to a chip surface. Human GPC3 (2119-GP; R&D systems) and murine GPC3 (6938-GP; R&D systems) were biotinylated using standard NHS chemistry. Undiluted Biotin CAPture Reagent (streptavidin conjugated with ss-DNA oligo) was captured on a Sensor Chip CAP with the pre-immobilized complementary ss-DNA oligo. Thereafter, biotinylated human or murine GPC3 at 1 μg/ml was applied for 300 s at a flow rate of […].
(§5) Lcn2 muteins were applied in concentrations of 10 nM, 40 nM and 160 nM at a flow rate of 30 μL/min. The dilutions were injected with association times of 180 s and dissociation times of 600 s to obtain ka and kd information. Regeneration of the chip surface was achieved by injecting 6 M Guanidinium-HCl+0.25 M NaOH (120 s) with a flow rate of 10 μL/min. Injection of regeneration solutions was followed by an extra wash step with H₂O and a stabilization period of 120 s.
(§6) The data were double-referenced by subtraction of the corresponding signals measured for the control channel (loaded with Biotin CAPture reagent only) and by subtraction of buffer injections from the binding responses. Association rate constant ka and dissociation rate constant kd for the binding reaction were determined using Biacore T200 Evaluation Software V2.0 for data processing and kinetic fitting. The data were globally fit with 1:1 binding model.

[6] = target: T5, Human GPC3 (2119-GP; R&D systems), biotinylated (human, UniProt P51654 25-559, biotinylated using standard NHS chemistry); experiment: as above
T5 construct: Bought protein; also called human Glypican-3
T5 sequence (P51654 25-559 limits assumed): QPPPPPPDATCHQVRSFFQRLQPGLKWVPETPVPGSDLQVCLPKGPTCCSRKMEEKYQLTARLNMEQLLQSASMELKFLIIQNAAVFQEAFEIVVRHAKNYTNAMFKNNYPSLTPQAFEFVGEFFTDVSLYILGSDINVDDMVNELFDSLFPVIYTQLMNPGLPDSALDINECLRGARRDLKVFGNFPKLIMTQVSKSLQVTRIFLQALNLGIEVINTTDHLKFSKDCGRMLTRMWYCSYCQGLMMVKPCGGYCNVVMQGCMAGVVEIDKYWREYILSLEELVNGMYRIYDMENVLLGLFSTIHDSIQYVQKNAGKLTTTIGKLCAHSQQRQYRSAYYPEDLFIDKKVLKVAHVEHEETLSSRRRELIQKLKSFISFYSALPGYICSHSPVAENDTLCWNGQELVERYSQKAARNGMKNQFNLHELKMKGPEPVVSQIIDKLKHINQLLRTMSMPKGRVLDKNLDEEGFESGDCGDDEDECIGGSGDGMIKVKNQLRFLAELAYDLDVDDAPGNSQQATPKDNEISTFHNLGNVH
Protocol: as §4, §5, §6

Binder	binding result [1]	EC50 [2] [nM]	EC50 [3] [nM]	EC50 [4] [nM]	Kd [5] [nM]	koff [5] [s⁻¹]	kon [5] [M⁻¹ s⁻¹]	Kd [6] [nM]	koff [6] [s⁻¹]	kon [6] [M⁻¹ s⁻¹]
B1	no binding (tested: 1000 nM)	–	–	–	–	–	–	–	–	–
B2	–	1.4	2.3	5.3	0.096	0.00018	1.9e+06	0.068	0.00013	2e+06
B3	–	0.9	0.6	2.9	0.09	0.00024	2.7e+06	0.07	0.00018	2.6e+06
B4	–	1.6	1.6	4.8	0.072	9.1e-05	1.3e+06	0.035	4.9e-05	1.4e+06
B5	–	9.5	15.4	6.7	1.59	0.0031	2e+06	0.819	0.002	2.4e+06
B6	–	1.1	1.9	4.1	0.075	0.00015	2e+06	0.054	9.8e-05	1.8e+06
B7	–	10.2	5.7	7.1	1.09	0.0028	2.6e+06	0.877	0.0022	2.5e+06
B8	–	2.2	2.5	4.4	0.311	0.00019	610000	0.171	0.00011	670000
B9	–	2	1.7	5.3	0.058	0.0003	5.1e+06	0.037	0.00024	6.5e+06
B10	–	0.8	0.8	3.8	0.093	0.00017	1.8e+06	0.063	0.00012	1.8e+06
B11	–	–	–	–	0.011	3.2e-05	2.9e+06	0.027	4.6e-05	1.7e+06
B12	–	24.1	33.9	25.6	0.207	0.00026	1.3e+06	0.119	0.0002	1.6e+06
B13	–	–	–	–	0.019	4.2e-05	2.2e+06	0.019	3.3e-05	1.8e+06
B14	–	24.3	29.9	29.8	0.674	0.0003	450000	0.387	0.00022	560000
B15	–	2.5	2.8	4.8	0.145	0.00015	1e+06	0.097	0.00013	1.3e+06
